Experimental data: patent US20170247448A1 (INTRINSIC LIFESCIENCES, published 2017)

Legend:
BAP070-hum01 [1] = molecular target: T1, BAP070-hum01; experiment: C-ELISA: goat anti-human Fc coated plate, antibody captured, unlabelled hepcidin titrated against a labelled tracer not named for this figure; the EC50 row has 7 cells under 8 columns and is assigned in order to the 7 antibodies with human Fc
T1 construct: Expressed as soluble IgG1 in CHO cells, tested as supernatant; The entries stop inside FR4 (...WGQG / ...FG); also called humanized hit 1

BAP070-hum02 [2] = molecular target: T2, BAP070-hum02; experiment: as above
T2 construct: Expressed as soluble IgG1 in CHO cells, tested as supernatant; The entries stop inside FR4

BAP070-hum03 [3] = molecular target: T3, BAP070-hum03; experiment: as above
T3 construct: Expressed as soluble IgG1 in CHO cells, tested as supernatant; The entries stop inside FR4

BAP070-hum04 [4] = molecular target: T4, BAP070-hum04; experiment: as above
T4 construct: Expressed as soluble IgG1 in CHO cells, tested as supernatant; The entries stop inside FR4

[5] = molecular target: T5, BAP070-01 (human-mouse chimeric MAb 583); experiment: as above
T5 construct: used as CHO cell supernatant; also called BAP070-1

BAP070-hum05 [6] = molecular target: T6, BAP070-hum05; experiment: as above
T6 construct: Expressed as soluble IgG1 in CHO cells, tested as supernatant; The entries stop inside FR4

BAP070-hum06 [7] = molecular target: T7, BAP070-hum06; experiment: as above
T7 construct: Expressed as soluble IgG1 in CHO cells, tested as supernatant; The entries stop inside FR4

BAP070-hum01 [8] = molecular target: T1, BAP070-hum01; experiment: C-ELISA: goat anti-human Fc coated plate, antibody captured (30 ng/well per title of FIG. 20D), unlabelled hepcidin titrated (ng/well per axis of FIG. 20D) against a labelled tracer not named for this figure; OD = tracer left on the antibody
BAP070-hum02 [9] = molecular target: T2, BAP070-hum02; experiment: as above
BAP070-hum03 [10] = molecular target: T3, BAP070-hum03; experiment: as above
BAP070-hum04 [11] = molecular target: T4, BAP070-hum04; experiment: as above
[12] = molecular target: T5, BAP070-01 (human-mouse chimeric MAb 583); experiment: as above
BAP070-hum05 [13] = molecular target: T6, BAP070-hum05; experiment: as above
BAP070-hum06 [14] = molecular target: T7, BAP070-hum06; experiment: as above
MAb 583 = molecular target: T8, MAb 583; experiment: C-ELISA with purified MAb 583; competitor NT-biotin hepcidin-25
T8 construct: Murine monoclonal, Protein A purified
T8 sequence (VH, as listed by the source, chain 1 of 2): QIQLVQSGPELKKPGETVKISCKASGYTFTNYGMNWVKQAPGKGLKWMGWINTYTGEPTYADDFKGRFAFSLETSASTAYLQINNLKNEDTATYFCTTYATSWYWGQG
T8 sequence (VL, as listed by the source, chain 2 of 2): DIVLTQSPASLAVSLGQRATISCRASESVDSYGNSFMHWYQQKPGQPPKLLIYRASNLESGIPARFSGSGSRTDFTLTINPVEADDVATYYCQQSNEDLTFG

T5 sequence (VH, as listed by the source, chain 1 of 2): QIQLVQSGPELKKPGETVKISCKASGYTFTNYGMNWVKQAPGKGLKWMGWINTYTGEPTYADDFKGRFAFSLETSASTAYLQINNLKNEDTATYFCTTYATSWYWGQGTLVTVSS
T5 sequence (VL, as listed by the source, chain 2 of 2): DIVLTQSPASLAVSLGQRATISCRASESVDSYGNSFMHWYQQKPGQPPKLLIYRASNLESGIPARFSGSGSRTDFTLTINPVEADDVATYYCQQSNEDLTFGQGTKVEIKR
T1 sequence (VH, as listed by the source, chain 1 of 2): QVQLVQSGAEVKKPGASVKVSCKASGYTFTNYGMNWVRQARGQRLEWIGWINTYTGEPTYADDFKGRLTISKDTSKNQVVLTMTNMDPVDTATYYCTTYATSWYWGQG
T1 sequence (VL, as listed by the source, chain 2 of 2): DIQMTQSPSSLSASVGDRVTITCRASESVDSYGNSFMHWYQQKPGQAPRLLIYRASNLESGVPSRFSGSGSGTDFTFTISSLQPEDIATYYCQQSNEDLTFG
T2 sequence (VL, as listed by the source, chain 2 of 2): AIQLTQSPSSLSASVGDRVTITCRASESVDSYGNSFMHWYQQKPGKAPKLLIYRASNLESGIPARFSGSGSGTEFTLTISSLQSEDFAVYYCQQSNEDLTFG
T4 sequence (VL, as listed by the source, chain 2 of 2): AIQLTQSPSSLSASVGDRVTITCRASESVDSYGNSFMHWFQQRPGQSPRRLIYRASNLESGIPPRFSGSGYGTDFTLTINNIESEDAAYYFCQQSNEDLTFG
T3 sequence (VH, as listed by the source, chain 1 of 2): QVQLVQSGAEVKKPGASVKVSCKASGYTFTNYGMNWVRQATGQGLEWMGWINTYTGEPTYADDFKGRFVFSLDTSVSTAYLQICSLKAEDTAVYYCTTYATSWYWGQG
T3 sequence (VL, as listed by the source, chain 2 of 2): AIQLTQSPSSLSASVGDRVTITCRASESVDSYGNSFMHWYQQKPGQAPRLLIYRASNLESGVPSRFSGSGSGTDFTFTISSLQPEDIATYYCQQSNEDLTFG
T6 sequence (VH, as listed by the source, chain 1 of 2): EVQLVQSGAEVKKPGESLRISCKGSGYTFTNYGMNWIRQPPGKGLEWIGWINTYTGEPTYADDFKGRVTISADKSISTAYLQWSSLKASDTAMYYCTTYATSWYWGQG

B1: Human hepcidin peptide (hepcidin-25) (peptide)
peptide: DTHFPICIFCCGCCHRSKCGMCCKT
notes: Synthetic 25 aa peptide; also called hep-25; Hep-25
BAP070-hum01 [1]
  EC50: 0.0237 mg/L
BAP070-hum02 [2]
  EC50: 0.0179 mg/L
BAP070-hum03 [3]
  EC50: 0.0205 mg/L
BAP070-hum04 [4]
  EC50: 0.0191 mg/L
[5]
  EC50: 0.0174 mg/L
BAP070-hum05 [6]
  EC50: 0.0188 mg/L
BAP070-hum06 [7]
  EC50: 0.0186 mg/L
BAP070-hum01 [8]
  OD450 at 0.000 ng/well hepcidin: 0.408
  OD450 at 0.137 ng/well hepcidin: 0.424
  OD450 at 0.412 ng/well hepcidin: 0.415
  OD450 at 1.235 ng/well hepcidin: 0.311
  OD450 at 3.704 ng/well hepcidin: 0.166
  OD450 at 11.111 ng/well hepcidin: 0.0849
  OD450 at 33.333 ng/well hepcidin: 0.0336
  OD450 at 100.000 ng/well hepcidin: 0.0144
BAP070-hum02 [9]
  OD450 at 0.000 ng/well hepcidin: 0.812
  OD450 at 0.137 ng/well hepcidin: 0.844
  OD450 at 0.412 ng/well hepcidin: 0.814
  OD450 at 1.235 ng/well hepcidin: 0.539
  OD450 at 3.704 ng/well hepcidin: 0.279
  OD450 at 11.111 ng/well hepcidin: 0.125
  OD450 at 33.333 ng/well hepcidin: 0.0475
  OD450 at 100.000 ng/well hepcidin: 0.0189
BAP070-hum03 [10]
  OD450 at 0.000 ng/well hepcidin: 2.13
  OD450 at 0.137 ng/well hepcidin: 2.1
  OD450 at 0.412 ng/well hepcidin: 1.96
  OD450 at 1.235 ng/well hepcidin: 1.48
  OD450 at 3.704 ng/well hepcidin: 0.653
  OD450 at 11.111 ng/well hepcidin: 0.281
  OD450 at 33.333 ng/well hepcidin: 0.0983
  OD450 at 100.000 ng/well hepcidin: 0.0359
BAP070-hum04 [11]
  OD450 at 0.000 ng/well hepcidin: 0.433
  OD450 at 0.137 ng/well hepcidin: 0.446
  OD450 at 0.412 ng/well hepcidin: 0.415
  OD450 at 1.235 ng/well hepcidin: 0.301
  OD450 at 3.704 ng/well hepcidin: 0.148
  OD450 at 11.111 ng/well hepcidin: 0.0719
  OD450 at 33.333 ng/well hepcidin: 0.0303
  OD450 at 100.000 ng/well hepcidin: 0.0135
[12]
  OD450 at 0.000 ng/well hepcidin: 2.88
  OD450 at 0.137 ng/well hepcidin: 2.77
  OD450 at 0.412 ng/well hepcidin: 2.65
  OD450 at 1.235 ng/well hepcidin: 1.77
  OD450 at 3.704 ng/well hepcidin: 0.826
  OD450 at 11.111 ng/well hepcidin: 0.334
  OD450 at 33.333 ng/well hepcidin: 0.125
  OD450 at 100.000 ng/well hepcidin: 0.0442
BAP070-hum05 [13]
  OD450 at 0.000 ng/well hepcidin: 0.972
  OD450 at 0.137 ng/well hepcidin: 0.917
  OD450 at 0.412 ng/well hepcidin: 0.88
  OD450 at 1.235 ng/well hepcidin: 0.625
  OD450 at 3.704 ng/well hepcidin: 0.273
  OD450 at 11.111 ng/well hepcidin: 0.125
  OD450 at 33.333 ng/well hepcidin: 0.0505
  OD450 at 100.000 ng/well hepcidin: 0.0195
BAP070-hum06 [14]
  OD450 at 0.000 ng/well hepcidin: 1.11
  OD450 at 0.137 ng/well hepcidin: 1.1
  OD450 at 0.412 ng/well hepcidin: 0.961
  OD450 at 1.235 ng/well hepcidin: 0.72
  OD450 at 3.704 ng/well hepcidin: 0.369
  OD450 at 11.111 ng/well hepcidin: 0.154
  OD450 at 33.333 ng/well hepcidin: 0.0599
  OD450 at 100.000 ng/well hepcidin: 0.0238
MAb 583
  EC50: ≤ 0.005 mg/L
